Experimental data as given in publication PMC515366, “A Drosophila Pattern Recognition Receptor Contains a Peptidoglycan Docking Groove and Unusual L,D-Carboxypeptidase Activity” (PLoS Biology, 2004).

Substrate: CC(=O)N[C@H]1[C@H](O[C@H]2[C@H](O[C@H](C)C(=O)N[C@@H](C)C(=O)N[C@H](CCC(=O)N[C@@H](CCC[C@@H](N)C(=O)O)C(=O)N[C@H](C)C(=O)O)C(=O)O)[C@@H](NC(C)=O)[C@@H]3OC[C@H]2O3)O[C@H](CO)[C@@H](O)[C@@H]1O
Assay: purified protein
Assay type: biochemical, Drosophila melanogaster
Settings: 20 mM HEPES pH 7.4, 2.5 mM EDTA, 37 °C, substrate 10–500 μM, releases terminal D-Ala

B1: rPGRP-SA (recombinant Drosophila PGRP-SA) (Drosophila melanogaster) (protein)
chain: GKSRQRSPANCPTIKLKRQWGGKPSLGLHYQVRPIRYVVIHHTVTGECSGLLKCAEILQNMQAYHQNELDFNDISYNFLIGNDGIVYEGTGWGLRGAHTYGYNAIGTGIAFIGNFVDKLPSDAALQAAKDLLACGVQQGELSEDYALIAGSQVISTQSPGLTLYNEIQEWPHWLSNP
notes: full-length secreted protein, own signal peptide removed, 177 residues plus C-terminal 6xHis tag; baculovirus, Hi-5 insect cells; monomer by gel filtration
- Km: 21.4 ± 1.8 µM
- kcat: 0.000133 ± 5.6e-06 s⁻¹
